The values that follow come from US20200262898A1 (INTEGRAL MOLECULAR, published 2020).

The target in assay [1] is T1, Fc-binding protein (the ZZ domain of ProA).
T1 construct: domain: ZZ domain of ProA; the construct is not described
Put plainly: flow cytometry on cells expressing the Fc-binding ZZ domain on their surface; given as a measure of expression. The source says: (§1) Antibodies were generated using the common light chains B9, F10, C11, and H11 paired with 8 different heavy chains. […] Binding is expressed as Signal:Background for binding to the molecular target of the heavy chain antibody (listed at top of Table 4). Expression is based on binding to cells expressing an Fc-binding protein (the ZZ domain of ProA) (ZZ) on their surface, enabling total antibody to bind and be measured. Detection was using flow cytometry with cells transfected to express the target protein. Background binding S:B is normalized to 1.0, using mock-transfected cells as background. The data in the table below illustrate that the light chains can be used with a variety of heavy chains and the antibody generated from a VH that can bind to the light chains B9 and F10 will function and bind to the target of interest.
(In flow cytometry, cells or beads pass a laser one at a time.)

The target in the next assay is T2, CD81 (UniProt P60033 1-236, limits assumed).
T2 construct: whole, on cells
T2 sequence (looked up): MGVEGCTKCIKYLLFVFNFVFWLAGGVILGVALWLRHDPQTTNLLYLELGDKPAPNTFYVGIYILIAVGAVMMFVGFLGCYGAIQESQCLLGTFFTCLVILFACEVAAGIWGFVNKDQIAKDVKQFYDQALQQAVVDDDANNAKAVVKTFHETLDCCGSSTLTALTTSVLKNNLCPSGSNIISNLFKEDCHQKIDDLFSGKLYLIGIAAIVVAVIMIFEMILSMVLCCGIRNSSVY
Put plainly: flow cytometry on cells transfected with the target; signal over mock-transfected cells (background = 1.0).
Excerpt: as §1

Another assay addresses T3, CD59 (UniProt P13987 26-102, limits assumed).
T3 construct: whole, on cells
T3 sequence (looked up): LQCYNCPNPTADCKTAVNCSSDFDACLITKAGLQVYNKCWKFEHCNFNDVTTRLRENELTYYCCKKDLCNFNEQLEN
Described as above.
Excerpt: as §1

B1: Antibody of common light chain B9 (B9chicken) paired with the heavy chain against CD81 (antibody, V domains shown)
VH: AVTLDESGGGLQTPGGALSLVCKASGFSIGDYNMGWVRQAPGKGLEWVAGIDAGGGTWRATAVKGRATISRDNGQSTVRLQLNNLRAEDTATYFCAKSTDSSANCCANSIDAWGHGTEVIVSS
VL: ALTQPSSVSANPGETVKITCSGGGSSNYYGWYQQKSPGSAPVTLIYGTNKRPSDIPSRFSGSKSGSTGTLTITGVQADDEAVYFCGSADSSTNAGIFGAGTTLTVL
notes: also called HC-CD81
With B1, in assay [1], the “S:B Expression” value was 10.8 S:B. Besides, the “S:B Binding” value in the assay with CD81 is 0.6 S:B.

B2: Antibody of common light chain C11 (C11chicken) paired with the heavy chain against CD81 (antibody, V domains shown)
VH: AVTLDESGGGLQTPGGALSLVCKASGFSIGDYNMGWVRQAPGKGLEWVAGIDAGGGTWRATAVKGRATISRDNGQSTVRLQLNNLRAEDTATYFCAKSTDSSANCCANSIDAWGHGTEVIVSS
VL: ALTQPSSVSANPGETVKITCSGGGSWYGSYYYGWYQQKSPGSAPVTLIYNNDKRPSDIPSRFSGSESGSTATLTITGVQAEDEAVYFCGGYDSTTTDMFGAGTTLTVL
notes: also called HC-CD81
As to B2, the “S:B Expression” value in assay [1] was 9.8 S:B. In the assay with CD81, the “S:B Binding” value was 30.9 S:B.

B3: Antibody of light chain D3 (D3chicken) paired with the heavy chain against CD81 (antibody, V domains shown)
VH: AVTLDESGGGLQTPGGALSLVCKASGFSIGDYNMGWVRQAPGKGLEWVAGIDAGGGTWRATAVKGRATISRDNGQSTVRLQLNNLRAEDTATYFCAKSTDSSANCCANSIDAWGHGTEVIVSS
VL: ALTQPSSVSANPGETVKITCSGDDRWYGWYQQKSPGSAPVTLIYSNDKRPSDIPSRFSGSKSGSTGTLTITGVQADDEAVYFCGSRDSSYAGIFGAGTTLTVL
notes: also called HC-CD81
Take B3: the “S:B Expression” value in assay [1] was 1.8 S:B. The “S:B Binding” value with CD81 is 1.2 S:B.

B4: Antibody of common light chain B9 (B9chicken) paired with the heavy chain against CD59 (antibody, V domains shown)
VH: AVTLDESGGGLQTPGGGLSLVCKASGFDFSSFDMVWVRQAPGKGLEWVAGISYSNTDTSYAPAVDGRATISRDNGQSTVRLQLNNLRAEDSATYYCAKSAGGCCYRADNIDAWGHGTEVIVSS
VL: ALTQPSSVSANPGETVKITCSGGGSSNYYGWYQQKSPGSAPVTLIYGTNKRPSDIPSRFSGSKSGSTGTLTITGVQADDEAVYFCGSADSSTNAGIFGAGTTLTVL
notes: also called HC-CD59
On to B4, for which, in assay [1], the “S:B Expression” value was 11.8 S:B. For the same molecule, in the assay with CD59, the “S:B Binding” value is 0.7 S:B.

B5: Antibody of light chain E1 (E1chicken) paired with the heavy chain against CD81 (antibody, V domains shown)
VH: AVTLDESGGGLQTPGGALSLVCKASGFSIGDYNMGWVRQAPGKGLEWVAGIDAGGGTWRATAVKGRATISRDNGQSTVRLQLNNLRAEDTATYFCAKSTDSSANCCANSIDAWGHGTEVIVSS
VL: ALTQPSSVSANPGETVKITCSGSSGSGYYGWYQQKSPGSAPVTLIYDNDKRPSDIPSRFSGSKSGSTGTLTITGVQADDEAVYFCGSADNNYTGIFGAGTTLTVL
notes: also called HC-CD81
As for B5, the “S:B Expression” value in assay [1] is 1.7 S:B. Besides, in the assay with CD81, the “S:B Binding” value is 1.5 S:B.

B6: Antibody of common light chain C11 (C11chicken) paired with the heavy chain against CD59 (antibody, V domains shown)
VH: AVTLDESGGGLQTPGGGLSLVCKASGFDFSSFDMVWVRQAPGKGLEWVAGISYSNTDTSYAPAVDGRATISRDNGQSTVRLQLNNLRAEDSATYYCAKSAGGCCYRADNIDAWGHGTEVIVSS
VL: ALTQPSSVSANPGETVKITCSGGGSWYGSYYYGWYQQKSPGSAPVTLIYNNDKRPSDIPSRFSGSESGSTATLTITGVQAEDEAVYFCGGYDSTTTDMFGAGTTLTVL
notes: also called HC-CD59
B6: the “S:B Expression” value in assay [1] is 12.2 S:B. Moreover, the “S:B Binding” value with CD59 is 1.4 S:B.
